# Columns and labels:
# ∆CAT-PARP1 [1] = target: T1, ∆CAT-PARP1 (UniProt P09874 1-662, del663-1014); experiment: EMSA; Kmono; n=1.0±0.1; EMSA: 25 mM Tris pH 8.0, 150 mM NaCl, 50 mM arginine, 1 mM EDTA, 0.1 mM TCEP, 1 mg/mL BSA, 20 °C, 30 min; 0.06 µM nucleic acid; details: protein: recombinant; tags: His; label: 5'-32P
# WT-PARP1 (full-length) [2] = target: T2, WT-PARP1 (full-length) (UniProt P09874 1-1014); experiment: EMSA; monomer-equivalent Kmono; n=1.8±0.1; ω=24.7±8.6; EMSA: 25 mM Tris pH 8.0, 150 mM NaCl, 50 mM arginine, 1 mM EDTA, 0.1 mM TCEP, 1 mg/mL BSA, 20 °C, 30 min; 0.06 µM nucleic acid; details: protein: recombinant; tags: His; label: 5'-32P
# ∆CAT-PARP1 [3] = target: T1, ∆CAT-PARP1; experiment: EMSA; monomer-equivalent Kmono; n=1.9±0.1; ω=49.0±12.9; EMSA: 25 mM Tris pH 8.0, 150 mM NaCl, 50 mM arginine, 1 mM EDTA, 0.1 mM TCEP, 1 mg/mL BSA, 20 °C, 30 min; 0.06 µM nucleic acid; details: protein: recombinant; tags: His; label: 5'-Cy3
# WT-PARP1 (full-length) [4] = target: T2, WT-PARP1 (full-length); experiment: EMSA; monomer-equivalent Kmono; n=2.2±0.1; ω=51.4±10.1; EMSA: 25 mM Tris pH 8.0, 150 mM NaCl, 50 mM arginine, 1 mM EDTA, 0.1 mM TCEP, 1 mg/mL BSA, 20 °C, 30 min; 0.06 µM nucleic acid; details: protein: recombinant; tags: His; label: 5'-Cy3
# ∆Zn1∆Zn2-PARP1 [5] = target: T3, ∆Zn1∆Zn2-PARP1 (UniProt P09874 216-1014, del1-215); experiment: EMSA; monomer-equivalent Kmono; n=1.7±0.1; ω=56.7±14.4; EMSA: 25 mM Tris pH 8.0, 150 mM NaCl, 50 mM arginine, 1 mM EDTA, 0.1 mM TCEP, 1 mg/mL BSA, 20 °C, 30 min; 0.06 µM nucleic acid; details: protein: recombinant; tags: His; label: 5'-Cy3
# ∆Zn1∆Zn2-PARP1 [6] = target: T3, ∆Zn1∆Zn2-PARP1; experiment: EMSA; monomer-equivalent Kmono; n=2.9±0.2; ω=104.3±31.1; EMSA: 25 mM Tris pH 8.0, 150 mM NaCl, 50 mM arginine, 1 mM EDTA, 0.1 mM TCEP, 1 mg/mL BSA, 20 °C, 30 min; 0.06 µM nucleic acid; details: protein: recombinant; tags: His; label: 5'-32P
# WT-PARP1 (full-length) [7] = target: T2, WT-PARP1 (full-length); experiment: EMSA; monomer-equivalent Kmono; n=1.9±0.2; ω=67.3±10.8; EMSA: 25 mM Tris pH 8.0, 150 mM NaCl, 50 mM arginine, 1 mM EDTA, 0.1 mM TCEP, 1 mg/mL BSA, 20 °C, 30 min; 0.06 µM nucleic acid; details: protein: recombinant; tags: His; label: 5'-32P
# ∆CAT-PARP1 [8] = target: T1, ∆CAT-PARP1; experiment: EMSA; monomer-equivalent Kmono; n=1.8±0.1; ω=86.1±20.3; EMSA: 25 mM Tris pH 8.0, 150 mM NaCl, 50 mM arginine, 1 mM EDTA, 0.1 mM TCEP, 1 mg/mL BSA, 20 °C, 30 min; 0.06 µM nucleic acid; details: protein: recombinant; tags: His; label: 5'-32P
# WT-PARP1 (full-length) [9] = target: T2, WT-PARP1 (full-length); experiment: EMSA; monomer-equivalent Kmono; n=4.1±0.2; ω=82.6±20.5; EMSA: 25 mM Tris pH 8.0, 150 mM NaCl, 50 mM arginine, 1 mM EDTA, 0.1 mM TCEP, 1 mg/mL BSA, 20 °C, 30 min; 0.06 µM nucleic acid; details: protein: recombinant; tags: His; label: 5'-32P on one strand (EMSA); unlabeled in AUC; blunt
# ∆Zn1∆Zn2-PARP1 [10] = target: T3, ∆Zn1∆Zn2-PARP1; experiment: sedimentation velocity AUC; 10 mM Tris pH 8.0, 100 mM NaCl, 4 °C; 1.8 µM DNA, 7.2 µM protein; reaction boundary, rapid equilibrium; EMSA: 25 mM Tris pH 8.0, 150 mM NaCl, 50 mM arginine, 1 mM EDTA, 0.1 mM TCEP, 1 mg/mL BSA, 20 °C, 30 min; 0.06 µM nucleic acid; details: protein: recombinant; tags: His; label: 5'-32P on one strand (EMSA); unlabeled in AUC; blunt
# ∆CAT-PARP1 [11] = target: T1, ∆CAT-PARP1; experiment: EMSA; monomer-equivalent Kmono; n=3.9±0.2; ω=139.9±59.5; EMSA: 25 mM Tris pH 8.0, 150 mM NaCl, 50 mM arginine, 1 mM EDTA, 0.1 mM TCEP, 1 mg/mL BSA, 20 °C, 30 min; 0.06 µM nucleic acid; details: protein: recombinant; tags: His; label: 5'-32P on one strand (EMSA); unlabeled in AUC; blunt
# T2 sequence (P09874 whole entry): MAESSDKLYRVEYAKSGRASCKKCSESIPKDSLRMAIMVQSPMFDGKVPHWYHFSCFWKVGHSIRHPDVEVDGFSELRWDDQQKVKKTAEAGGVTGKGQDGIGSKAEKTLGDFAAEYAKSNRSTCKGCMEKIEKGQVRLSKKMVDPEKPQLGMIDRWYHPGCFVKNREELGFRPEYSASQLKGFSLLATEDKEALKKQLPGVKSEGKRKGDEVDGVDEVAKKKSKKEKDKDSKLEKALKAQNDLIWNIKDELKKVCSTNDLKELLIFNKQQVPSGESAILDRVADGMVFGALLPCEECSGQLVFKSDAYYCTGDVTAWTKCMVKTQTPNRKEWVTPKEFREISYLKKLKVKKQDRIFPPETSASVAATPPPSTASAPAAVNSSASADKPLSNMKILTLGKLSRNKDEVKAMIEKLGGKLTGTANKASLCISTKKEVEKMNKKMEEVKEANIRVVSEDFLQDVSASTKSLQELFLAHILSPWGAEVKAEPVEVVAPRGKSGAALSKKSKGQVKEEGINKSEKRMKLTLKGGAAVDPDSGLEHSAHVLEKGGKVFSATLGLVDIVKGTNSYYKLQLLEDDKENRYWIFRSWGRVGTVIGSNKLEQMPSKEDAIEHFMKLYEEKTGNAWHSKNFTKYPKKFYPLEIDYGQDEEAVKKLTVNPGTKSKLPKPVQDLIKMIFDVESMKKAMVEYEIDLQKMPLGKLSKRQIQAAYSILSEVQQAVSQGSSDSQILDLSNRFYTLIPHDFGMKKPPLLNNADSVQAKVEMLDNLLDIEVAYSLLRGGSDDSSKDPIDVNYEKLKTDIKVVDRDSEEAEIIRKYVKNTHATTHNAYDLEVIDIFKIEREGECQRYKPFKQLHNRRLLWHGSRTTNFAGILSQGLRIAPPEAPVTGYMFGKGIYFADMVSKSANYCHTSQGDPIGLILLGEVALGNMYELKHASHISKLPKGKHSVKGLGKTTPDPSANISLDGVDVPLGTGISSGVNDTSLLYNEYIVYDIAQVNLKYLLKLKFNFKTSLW
# T1 sequence (P09874 1-662, stated change not applied): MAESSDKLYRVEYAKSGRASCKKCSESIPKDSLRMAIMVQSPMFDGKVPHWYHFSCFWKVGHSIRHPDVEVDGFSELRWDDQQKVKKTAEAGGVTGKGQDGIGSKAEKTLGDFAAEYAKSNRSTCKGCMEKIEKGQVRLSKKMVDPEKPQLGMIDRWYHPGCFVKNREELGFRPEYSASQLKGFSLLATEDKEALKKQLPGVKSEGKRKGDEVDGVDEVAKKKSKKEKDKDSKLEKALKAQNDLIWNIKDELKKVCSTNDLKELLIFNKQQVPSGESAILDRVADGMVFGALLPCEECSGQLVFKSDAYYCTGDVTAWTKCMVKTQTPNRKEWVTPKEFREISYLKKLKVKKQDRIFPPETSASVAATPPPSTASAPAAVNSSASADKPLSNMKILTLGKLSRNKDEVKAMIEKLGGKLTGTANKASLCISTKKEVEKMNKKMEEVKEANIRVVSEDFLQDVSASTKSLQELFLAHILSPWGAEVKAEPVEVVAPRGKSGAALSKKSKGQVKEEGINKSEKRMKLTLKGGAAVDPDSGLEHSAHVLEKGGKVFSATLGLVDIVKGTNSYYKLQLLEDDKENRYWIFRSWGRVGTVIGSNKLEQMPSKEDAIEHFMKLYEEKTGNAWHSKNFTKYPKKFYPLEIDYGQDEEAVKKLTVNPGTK
# T3 sequence (P09874 216-1014, stated change not applied): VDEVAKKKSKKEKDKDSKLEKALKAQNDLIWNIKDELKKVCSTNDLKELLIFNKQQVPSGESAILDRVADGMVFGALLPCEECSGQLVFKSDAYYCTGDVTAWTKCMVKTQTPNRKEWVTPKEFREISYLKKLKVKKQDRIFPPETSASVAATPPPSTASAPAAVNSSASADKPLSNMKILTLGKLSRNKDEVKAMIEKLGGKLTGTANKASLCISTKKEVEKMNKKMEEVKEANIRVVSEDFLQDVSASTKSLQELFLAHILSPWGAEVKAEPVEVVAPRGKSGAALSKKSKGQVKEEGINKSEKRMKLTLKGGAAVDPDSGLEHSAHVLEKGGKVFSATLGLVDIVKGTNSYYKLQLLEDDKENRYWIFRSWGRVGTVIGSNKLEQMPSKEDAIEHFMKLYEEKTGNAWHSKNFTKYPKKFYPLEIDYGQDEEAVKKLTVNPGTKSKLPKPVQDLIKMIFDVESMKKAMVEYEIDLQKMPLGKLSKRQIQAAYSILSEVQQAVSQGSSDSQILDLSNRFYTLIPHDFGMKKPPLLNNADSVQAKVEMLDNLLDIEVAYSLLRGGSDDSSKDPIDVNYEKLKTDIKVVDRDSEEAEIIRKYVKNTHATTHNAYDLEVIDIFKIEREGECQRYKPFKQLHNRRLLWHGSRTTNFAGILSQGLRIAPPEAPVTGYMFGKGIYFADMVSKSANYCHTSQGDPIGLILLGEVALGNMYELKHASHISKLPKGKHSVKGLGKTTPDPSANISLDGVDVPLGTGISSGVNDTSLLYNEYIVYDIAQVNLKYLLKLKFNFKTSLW
binder,measurement,setting,value
CGTACGCGGGTTTAAACGA (ssDNA) [ss19-mer DNA],Ka,∆CAT-PARP1 [1],114000 M⁻¹
same,Ka,WT-PARP1 (full-length) [2],3.3e+06 M⁻¹
TTTTTTTTTTTTTTTTTTTT (ssDNA) [Cy3-T20 DNA],Ka,∆CAT-PARP1 [3],3.3e+06 M⁻¹
same,Ka,WT-PARP1 (full-length) [4],1.3e+07 M⁻¹
same,Ka,∆Zn1∆Zn2-PARP1 [5],2.5e+06 M⁻¹
UUUUUUUUUUUUUUUUUUUU (ssRNA) [U20 RNA],Ka,∆Zn1∆Zn2-PARP1 [6],9.1e+07 M⁻¹
same,Ka,WT-PARP1 (full-length) [7],2.1e+08 M⁻¹
same,Ka,∆CAT-PARP1 [8],6.6e+06 M⁻¹
ds19-mer DNA (dsDNA) DNA 1: CGTACGCGGGTTTAAACGA DNA 2: TCGTTTAAACCCGCGTACG,Ka,WT-PARP1 (full-length) [9],1.2e+07 M⁻¹
same,binding result,∆Zn1∆Zn2-PARP1 [10],binds
same,Ka,∆CAT-PARP1 [11],1.3e+07 M⁻¹

# — paper PMC10980755, “Cooperative nucleic acid binding by Poly ADP-ribose polymerase 1”
